Test results as given in publication PMC10453637.

Tested on: O=C1CCCCC1
Test: purified protein
Conditions: apparent, 0.3 mM NADPH, 50 mM sodium phosphate pH 7.7, 25 °C

## Ac CHMO (cyclohexanone monooxygenase) (Acinetobacter johnsonii)
  Km: 4.09 ± 1.81 µM
